Reference: the supplement of paper PMC10724198
± gives the standard deviation of the averaged measurements.

Test system: Saccharomyces cerevisiae
Test: protein stability index of tFT-peptide fusion (C-terminal peptide) (PSI (0-1 scale)); higher = more stable (slower turnover)
Conditions: genetic background: wild type; temperature: 30 C
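Note: PSI is a weighted mean of sequencing reads over stability bins, variants kept only with over 10 reads, mCherry proximal and sfGFP distal, peptide attached via GGGS linker.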

Sequence | protein stability index
LFPAAPAPPPPP | 0.658 ± 0.028
LFPAIWPRVLSW | 0.566 ± 0.02
LFPRCYFARIVV | 0.484 ± 0.033
LFSSQAGGRLES | 0.67 ± 0.019
LFTFEADKCDLT | 0.774 ± 0.092
LFTSCPPDVRSL | 0.667 ± 0.012
LFVAFGAAESFE | 0.67 ± 0.098
LGAPPPLGLSPS | 0.733 ± 0.019
LGASPTWGPARS | 0.656 ± 0.016
LGCVDRMGRVFG | 0.704 ± 0.079
LGEHHKEQEKNV | 0.654 ± 0.023
LGEYNRKKKPRI | 0.6446 ± 0.0034
LGFDRGGGVAGM | 0.674 ± 0.034
LGGERERGRKRG | 0.672 ± 0.048
LGGGEGKRVCEG | 0.668 ± 0.017
LGGGGVGVGSLV | 0.679 ± 0.014
LGGGGWGGACGE | 0.66 ± 0.02
LGGGNVGHSRIW | 0.623 ± 0.073
LGGICPLYDLVF | 0.667 ± 0.076
LGGLKCGRLADS | 0.656 ± 0.041
LGGLRRGSGREG | 0.678 ± 0.015
LGGLYGTAMSCT | 0.683 ± 0.023
LGGRWVLGVRGV | 0.694 ± 0.029
LGGSNRPCVRSI | 0.697 ± 0.011
LGGSVAIWSWNP | 0.763 ± 0.12
LGGWAGLRCGGF | 0.704 ± 0.026

Sequence | protein stability index
LGILVFRGASFL | 0.7351 ± 0.007
LGLCQVLFSFRV | 0.56816 ± 0.00044
LGLEALRETSQP | 0.6448 ± 0.005
LGLSDPERLFVI | 0.664 ± 0.025
LGMEPPWIYSCQ | 0.6851 ± 0.0019
LGRGGGGPLSGG | 0.717 ± 0.041
LGRLFPTSLPPR | 0.739 ± 0.17
LGRLGAFITQPA | 0.671 ± 0.059
LGRMCSRITVGV | 0.543 ± 0.026
LGRPLLYALFFP | 0.724 ± 0.048
LGRRGLSMCGCV | 0.634 ± 0.018
LGRVLSFGHAFV | 0.698 ± 0.021
LGSASRQLARPR | 0.66 ± 0.12
LGSVVADGPHKL | 0.625 ± 0.0097
LGVAMSKCLEFR | 0.684 ± 0.0083
LGVFVAFGGFGV | 0.605 ± 0.048
LGVGGRGVVPGA | 0.7 ± 0.031
LGWGWVWSWGRG | 0.728 ± 0.052
LHISYPVPPLRM | 0.633 ± 0.11
LHNQTLLLSEDD | 0.652 ± 0.037
LIALLETRTWRT | 0.676 ± 0.015
LIAVASSGWKQS | 0.7145 ± 0.0023
LICQNPVADPRT | 0.711 ± 0.042
LIFKLQLPSPWL | 0.643 ± 0.042
LIHGRFWVIRVD | 0.616 ± 0.0092
LIKSEECKNTDI | 0.704 ± 0.033

Sequence | protein stability index
LILLLTPPVIHH | 0.743 ± 0.051
LIRLLPPPPAVF | 0.487 ± 0.068
LISHHSEFPVIL | 0.744 ± 0.031
LISNIFSFEWLW | 0.622 ± 0.032
LKDITVWRPKRG | 0.658 ± 0.12
LKHHDSNESASR | 0.651 ± 0.1
LKKMIGPLRAGE | 0.686 ± 0.076
LKLHDSNESASR | 0.651 ± 0.03
LKLTFFCRQNIF | 0.574 ± 0.0098
LKNIRYGIIKKE | 0.68 ± 0.0085
LKRKKKHQMKRR | 0.699 ± 0.028
LKSGRYSYFGSL | 0.734 ± 0.086
LLAAVSPSHRAL | 0.724 ± 0.021
LLAPSPPPPLPP | 0.61 ± 0.13
LLAYFCRRGVRH | 0.7232 ± 0.0071
LLCSLRPLAVPP | 0.602 ± 0.039
LLDLCSNLLRSF | 0.757 ± 0.11
LLEKGHTRGLCF | 0.663 ± 0.017
LLFCMGSCGPVR | 0.624 ± 0.027
LLFVVSLPSFPC | 0.636 ± 0.13
LLGFRLACTSGA | 0.648 ± 0.0079
LLGRWVAGSRGG | 0.746 ± 0.017
LLHAGVCSVSFL | 0.718 ± 0.038
LLLPPAPPPPLS | 0.621 ± 0.095
LLLVGGVSSWTV | 0.67 ± 0.014
LLLVRNCQDSRQ | 0.69 ± 0.057

Sequence | protein stability index
LLPFLPPPPCPP | 0.72 ± 0.022
LLPFTLHIPLRP | 0.6523 ± 0.0022
LLPGLVGMLSCM | 0.602 ± 0.039
LLPGPYPLLSDN | 0.732 ± 0.025
LLPLAPVCVIIL | 0.54 ± 0.041
LLPLPCPPFPHS | 0.674 ± 0.024
LLPPPHHANHTA | 0.6915 ± 0.0027
LLPRLRHPSRGK | 0.73 ± 0.15
LLPSPISRNRAL | 0.696 ± 0.0081
LLPSPLHGCTMS | 0.676 ± 0.01
LLPSPPPPTSLP | 0.728 ± 0.033
LLPVLGFPLPFD | 0.75 ± 0.065
LLRVLPPPPLPL | 0.712 ± 0.11
LLRVTVCELAYK | 0.55 ± 0.018
LLSFLPPVFLLL | 0.514 ± 0.014
LLSGPTLSCVPT | 0.617 ± 0.043
LLSLHPRYPCTP | 0.76 ± 0.047
LLSLLPFGCLLL | 0.536 ± 0.031
LLSRLLLAPSSL | 0.65 ± 0.019
LLSSATPSKFPS | 0.836 ± 0.021
LLSTPPIVSPPA | 0.6987 ± 0.0031
LLSVPCPLVCRL | 0.699 ± 0.037
LLSYLRNCCAEH | 0.687 ± 0.035
LLTFSSCALPYR | 0.676 ± 0.092
LLTGKTVPKDST | 0.705 ± 0.016
LLWGSSPDGGQG | 0.694 ± 0.019

Sequence | protein stability index
LLYLFMSSRFLW | 0.6369 ± 0.003
LMCSSGGGCSCG | 0.706 ± 0.023
LNGRYGGFGHRC | 0.7009 ± 0.007
LNLLCGFRQVGG | 0.701 ± 0.013
LNNLTVVDVAGL | 0.69 ± 0.017
LNTETNVVLLEG | 0.671 ± 0.035
LNTVRKSKDKAI | 0.706 ± 0.19
LNVVSRLLACGL | 0.642 ± 0.022
LPAARQSVLPPA | 0.732 ± 0.0085
LPASPPLSGLIF | 0.823 ± 0.14
LPCFPSLNRNPL | 0.7397 ± 0.0015
LPCPSPPPSPLS | 0.675 ± 0.06
LPCVSTCCSCLL | 0.706 ± 0.011
LPDSHHQTMGVF | 0.711 ± 0.055
LPGCGSYLSGNV | 0.651 ± 0.056
LPKTSPRSRRER | 0.6868 ± 0.0053
LPLIPTSSRRHS | 0.682 ± 0.024
LPLLSSLLALLY | 0.647 ± 0.042
LPLPHAPPPPPT | 0.7233 ± 0.0026
LPLPPALPSPSL | 0.658 ± 0.027
LPLPPPCSRVLF | 0.644 ± 0.074
LPLPPPPLLPAP | 0.732 ± 0.057
LPLPPPPPCCSF | 0.701 ± 0.015
LPMGGMFVARSI | 0.653 ± 0.059
LPPDSLRPPGPP | 0.761 ± 0.017
LPPFPLPPPLLS | 0.68 ± 0.1

Sequence | protein stability index
LPPGDPPPRGPP | 0.597 ± 0.045
LPPHAPIPRWKP | 0.776 ± 0.17
LPPHPPSPPFLP | 0.588 ± 0.023
LPPPFPWSPSGP | 0.698 ± 0.066
LPPPLLPTPMAP | 0.661 ± 0.09
LPPPPRPRSLLS | 0.693 ± 0.047
LPPPPSPLPPRP | 0.627 ± 0.048
LPPPRPLPIPSP | 0.711 ± 0.047
LPPRLPLSLDVL | 0.675 ± 0.086
LPPTPTLPLVPP | 0.7153 ± 0.0053
LPRASPKARTLR | 0.714 ± 0.075
LPRASQFLLPVP | 0.651 ± 0.065
LPRFTPPLPPPL | 0.734 ± 0.0096
LPRNQPVPFPCH | 0.677 ± 0.0094
LPRPPPFSPPPP | 0.651 ± 0.11
LPRREQILRKGS | 0.71 ± 0.023
LPRSRLAPPPCS | 0.73 ± 0.015
LPSARLPPPPPR | 0.683 ± 0.021
LPSEAPSLLAPP | 0.663 ± 0.084
LPSHAPRRPTFP | 0.7403 ± 0.0056
LPSLLPESGLCF | 0.604 ± 0.0086
LPSPPPSSPLPP | 0.56 ± 0.048
LPSPYPPPRPLP | 0.711 ± 0.034
LPSQRPWLAQSI | 0.717 ± 0.01
LPSSAVDLYTRP | 0.6468 ± 0.0059
LPSSPFPPLPVT | 0.6889 ± 0.0042

Sequence | protein stability index
LPSTQSPPPPLP | 0.705 ± 0.077
LPTASLLPPPPP | 0.626 ± 0.078
LPTKPVPIPRHY | 0.693 ± 0.052
LPTPSQYFFPPP | 0.736 ± 0.018
LPTPSSSYLYPA | 0.611 ± 0.017
LPTPTPPPALRS | 0.689 ± 0.053
LPTYPPTLPVPS | 0.638 ± 0.04
LPVPFFPPCPFR | 0.732 ± 0.012
LPYHSSPPSSSP | 0.702 ± 0.046
LQAKRTAGPGEH | 0.68423 ± 0.00012
LQIFRSRCFGGL | 0.722 ± 0.13
LQKRKQMRKIKE | 0.646 ± 0.019
LRALLSHPRRCA | 0.625 ± 0.034
LRAPPPPAQPFV | 0.694 ± 0.012
LRFELCLCIEPA | 0.53 ± 0.059
LRFIIPSDLSFV | 0.696 ± 0.03
LRFVTAGEFEMK | 0.635 ± 0.061
LRGIGVSWWKGL | 0.583 ± 0.023
LRGLLWFSRVGS | 0.618 ± 0.011
LRGNDRLLSKRI | 0.694 ± 0.022
LRGSDYIVIGGS | 0.656 ± 0.025
LRGVDYEQMSDP | 0.667 ± 0.11
LRHLLAPPPRPP | 0.649 ± 0.016
LRHLPHPTCSLL | 0.7 ± 0.06
LRKTNQKIRSFK | 0.614 ± 0.037
LRLLPRIVSPSV | 0.6 ± 0.022

Sequence | protein stability index
LRLLSFFITSFL | 0.64 ± 0.13
LRPFSPSPPRPF | 0.705 ± 0.013
LRPLSPPTLLPA | 0.664 ± 0.022
LRPPPAAHSLGP | 0.645 ± 0.012
LRQWRRERAIII | 0.601 ± 0.042
LRRLSSIGWSRI | 0.754 ± 0.14
LRSLSLSYVALR | 0.6592 ± 0.0017
LRSVNVLAALFS | 0.686 ± 0.043
LRVNFPLHDPHP | 0.65 ± 0.049
LRVSPVALPSSW | 0.81 ± 0.13
LSADVNRRLGLS | 0.674 ± 0.035
LSAFLLLMPRLP | 0.659 ± 0.01
LSALPLTRPLAR | 0.709 ± 0.043
LSALSLFLFFLR | 0.58 ± 0.046
LSAPLPPLSAPP | 0.667 ± 0.0099
LSAQNNTGIVKT | 0.623 ± 0.0084
LSATGSCSPRRG | 0.693 ± 0.014
LSCLIPLPAPPL | 0.662 ± 0.052
LSCRLDGIVIWF | 0.64 ± 0.051
LSFLAPGPPPAR | 0.735 ± 0.039
